In patent publication US20100278865A1:

Target: E2 protein of J6/JFH-1 (3×FLAG) virus particles (hepatitis C virus, J6CF strain (genotype 2a))
Experiment: batch capture of virus particles on M2 antibody agarose, FLAG peptide elution, HCV Core ELISA of eluates

Substance: anti-FLAG monoclonal antibody (M2 antibody, Sigma)
- purification efficiency: 5%
